Assay results from publication PMC10899662, “TopBP1 utilises a bipartite GINS binding mode to support genome replication” (Nature Communications, 2024).

Tested on: DNA replication in Xenopus egg extracts
Experiment: Replication assay in TopBP1-immunodepleted Xenopus egg extract (α-32P-dCTP incorporation)
Type: biochemical, Xenopus laevis
Details: for ability to support replication (words): 6 ng/µl recombinant TopBP1 added to TopBP1-immunodepleted extract, 23 °C
Procedure: Fig. 5 Both GINS binding surfaces in TopBP1 cooperate in supporting genome replication. a Immobilized recombinant Flag-GINS or Flag peptide-coupled beads were used to pulldown the indicated recombinant TopBP1-BRCT0-5-strep versions (Figs. 1a and 3a) using 100 mM NaAc in the binding buffer. The pulldown was analysed by immunoblotting. […] Estimations were done for the binding interfaces involving TopBP1-GINI (blue) and TopBP1-BRCT4 (red), both together and alone. c Coomassie-stained SDS PAGE gel of the indicated recombinant TopBP1-BRCT0-5 proteins (Figs. 1a(ii) and 3a). d The indicated relative amounts (100%–10%) of immunodepleted and non-depleted Xenopus egg extracts (Xtract) were analysed by immunoblotting using anti-TopBP1 #2 and other indicated antibodies. TopBP1 antibodies #1 and #2, or unspecific IgG (mock) were used for immunodepletions. Ponc, ponceau staining. Error bars, SEM, n = 3. The experiments were done more than three times (i) or twice (ii) with similar results. e, f Replication analyses (radioactive nucleotide incorporation) using Xenopus egg extracts immunodepleted with antibodies anti-TopBP1#1, #2 or unspecific IgG (mock). Buffer (buf), recombinant wild-type (WT) or mutant TopBP1-BRCT0-5-strep (c) were added. Diamonds, Individual data points of n = 3 independent experiments, Error bars, SEM. Source data are provided as a Source data file.
Xenopus laevis egg extracts were prepared from metaphase II arrested eggs as described in ref. [79]. After washing with MMR (100 mM NaCl, 2 mM KCl, 1 mM MgCl2, 2 mM CaCl2, 0.1 mM EDTA, 5 mM HEPES–NaOH, pH 7.8) eggs were dejellied (2% cysteine w:v in H2O, pH 7.8 with NaOH). Eggs were rinsed in XBE2 (100 mM KCl, 2 mM MgCl2, 0.1 mM CaCl2, 1.71% w:v sucrose, 5 mM K-EGTA, 10 mM HEPES–KOH, pH 7.7). Then, the eggs were transferred into centrifuge tubes containing 1 ml XBE2 + 10 µg/ml protease inhibitor (aprotinin Sigma A6279, leupeptin Merck 108975, pepstatin Carl Roth 2936.1) + 100 µg/ml cytochalasin D (Sigma C8273). For packing, eggs were centrifuged for 1 min at 1400 × g at 16 °C in a swingout rotor. Excess buffer, activated and apoptotic eggs were removed before crushing the eggs at 16,000 × g for 10 min at 16 °C. The extract was collected with a 20 G needle and supplemented with 10 µg/ml cytochalasin D, 10 µg/ml protease inhibitors, 1:80 dilution of energy regenerator (1M phosphocreatine K salt, 600 µg/ml creatine phosphokinase in 10 mM HEPES–KOH pH 7.6) and LFB1/50 (10% w-v sucrose, 50 mM KCl, 2 mM MgCl2, 1 mM EGTA, 2 mM DTT, 20 mM K2HPO4/KH2PO4 pH 8.0, 40 mM HEPES–KOH, pH 8.0) to 15% (v:v). The extract was cleared at 84,000 × g at 4 °C for 20 min in a swingout rotor. The cytoplasmatic layer was collected and supplemented with 2% glycerol v:v. […]

B1: TopBP1-BRCT0-5-WT: recombinant TopBP1 amino acids 1–766, strep-tagged (protein)
chain: MSRNDKEPFFVKFLKSSDNSKCFFKALESIKEFQSEEYLQIITEEEALKIKENDRSLYICDPFSGVVFDHLKKLGCRIVGPQVVIFCMHHQRCVPRAEHPVYNMVMSDVTISCTSLEKEKREEVHKYVQMMGGRVYRDLNVSVTHLIAGEVGSKKYLVAANLKKPILLPSWIKTLWEKSQEKKITRYTDINMEDFKCPIFLGCIICVTGLCGLDRKEVQQLTVKHGGQYMGQLKMNECTHLIVQEPKGQKYECAKRWNVHCVTTQWFFDSIEKGFCQDESIYKTEPRPEAKTMPNSSTPTSQINTIDSRTLSDVSNISNINASCVSESICNSLNSKLEPTLENLENLDVSAFQAPEDLLDGCRIYLCGFSGRKLDKLRRLINSGGGVRFNQLNEDVTHVIVGDYDDELKQFWNKSAHRPHVVGAKWLLECFSKGYMLSEEPYIHANYQPVEIPVSHKPESKAALLKKKNSSFSKKDFAPSEKHEQADEDLLSQYENGSSTVVEAKTSEARPFNDSTHAEPLNDSTHISLQEENQSSVSHCVPDVSTITEEGLFSQKSFLVLGFSNENESNIANIIKENAGKIMSLLSRTVADYAVVPLLGCEVEATVGEVVTNTWLVTCIDYQTLFDPKSNPLFTPVPVMTGMTPLEDCVISFSQCAGAEKESLTFLANLLGASVQEYFVRKSNAKKGMFASTHLILKERGGSKYEAAKKWNLPAVTIAWLLETARTGKRADESHFLIENSTKEERSLETEITNGINLNSDTAEHP
modifications: left off: Strep, C-terminal, kept
notes: recombinant TopBP1 amino acids 1–766, strep-tagged
ability to support replication (words): effectively rescued replication in depleted extracts

B2: TopBP1-Gpp: TopBP1-BRCT0-5, central leucine-leucine motif mutated to two consecutive prolines (protein)
chain: MSRNDKEPFFVKFLKSSDNSKCFFKALESIKEFQSEEYLQIITEEEALKIKENDRSLYICDPFSGVVFDHLKKLGCRIVGPQVVIFCMHHQRCVPRAEHPVYNMVMSDVTISCTSLEKEKREEVHKYVQMMGGRVYRDLNVSVTHLIAGEVGSKKYLVAANLKKPILLPSWIKTLWEKSQEKKITRYTDINMEDFKCPIFLGCIICVTGLCGLDRKEVQQLTVKHGGQYMGQLKMNECTHLIVQEPKGQKYECAKRWNVHCVTTQWFFDSIEKGFCQDESIYKTEPRPEAKTMPNSSTPTSQINTIDSRTLSDVSNISNINASCVSESICNSLNSKLEPTLENLENLDVSAFQAPEDLLDGCRIYLCGFSGRKLDKLRRLINSGGGVRFNQLNEDVTHVIVGDYDDELKQFWNKSAHRPHVVGAKWLLECFSKGYMLSEEPYIHANYQPVEIPVSHKPESKAALLKKKNSSFSKKDFAPSEKHEQADEDPPSQYENGSSTVVEAKTSEARPFNDSTHAEPLNDSTHISLQEENQSSVSHCVPDVSTITEEGLFSQKSFLVLGFSNENESNIANIIKENAGKIMSLLSRTVADYAVVPLLGCEVEATVGEVVTNTWLVTCIDYQTLFDPKSNPLFTPVPVMTGMTPLEDCVISFSQCAGAEKESLTFLANLLGASVQEYFVRKSNAKKGMFASTHLILKERGGSKYEAAKKWNLPAVTIAWLLETARTGKRADESHFLIENSTKEERSLETEITNGINLNSDTAEHP
modifications: left off: Strep, C-terminal, kept
notes: TopBP1-BRCT0-5, central leucine-leucine motif mutated to two consecutive prolines
reduction in nucleotide incorporation (120 min time point, TopBP1-immunodepleted Xenopus egg extract, 6 ng/µl protein): 55%

B3: TopBP1-B4mut: Val590, Thr606 and Val610 mutated to glutamate, arginine and glutamate (protein)
chain: MSRNDKEPFFVKFLKSSDNSKCFFKALESIKEFQSEEYLQIITEEEALKIKENDRSLYICDPFSGVVFDHLKKLGCRIVGPQVVIFCMHHQRCVPRAEHPVYNMVMSDVTISCTSLEKEKREEVHKYVQMMGGRVYRDLNVSVTHLIAGEVGSKKYLVAANLKKPILLPSWIKTLWEKSQEKKITRYTDINMEDFKCPIFLGCIICVTGLCGLDRKEVQQLTVKHGGQYMGQLKMNECTHLIVQEPKGQKYECAKRWNVHCVTTQWFFDSIEKGFCQDESIYKTEPRPEAKTMPNSSTPTSQINTIDSRTLSDVSNISNINASCVSESICNSLNSKLEPTLENLENLDVSAFQAPEDLLDGCRIYLCGFSGRKLDKLRRLINSGGGVRFNQLNEDVTHVIVGDYDDELKQFWNKSAHRPHVVGAKWLLECFSKGYMLSEEPYIHANYQPVEIPVSHKPESKAALLKKKNSSFSKKDFAPSEKHEQADEDLLSQYENGSSTVVEAKTSEARPFNDSTHAEPLNDSTHISLQEENQSSVSHCVPDVSTITEEGLFSQKSFLVLGFSNENESNIANIIKENAGKIMSLLSRTEADYAVVPLLGCEVEARVGEEVTNTWLVTCIDYQTLFDPKSNPLFTPVPVMTGMTPLEDCVISFSQCAGAEKESLTFLANLLGASVQEYFVRKSNAKKGMFASTHLILKERGGSKYEAAKKWNLPAVTIAWLLETARTGKRADESHFLIENSTKEERSLETEITNGINLNSDTAEHP
modifications: left off: Strep, C-terminal, kept
ability to support replication (words): not detectably compromised in their abilities to support replication
ability to support replication (words) (listed as B4mut): do not aﬀect grossly the replica+on-inducing
